Results reported in publication PMC10167072, “Human granzyme B binds Plasmodium falciparum Hsp70-x and mediates antiplasmodial activity in vitro” (Cell Stress & Chaperones, 2023).

How the values were obtained:
[1] = target: full-length PfHsp70-xF (P. falciparum); test: SPR; Hsp70 immobilised (100 µg/mL) on CMD 3D 500L chip, GrB analyte 0-2000 nM, 25 °C, PBS-Tween 20 with 20 mM EDTA pH 7.4, 25 μL/min, 1:1 Langmuir global fit; with ATP
[2] = target: PfHsp70-xT, truncated PfHsp70-x lacking the C-terminal EEVN residues (P. falciparum); test: as above
[3] = target: full-length PfHsp70-xF (P. falciparum); test: SPR; Hsp70 immobilised (100 µg/mL) on CMD 3D 500L chip, GrB analyte 0-2000 nM, 25 °C, PBS-Tween 20 with 20 mM EDTA pH 7.4, 25 μL/min, 1:1 Langmuir global fit; with ADP
[4] = target: PfHsp70-xT, truncated PfHsp70-x lacking the C-terminal EEVN residues (P. falciparum); test: as above
[5] = target: full-length PfHsp70-xF (P. falciparum); test: SPR; Hsp70 immobilised (100 µg/mL) on CMD 3D 500L chip, GrB analyte 0-2000 nM, 25 °C, PBS-Tween 20 with 20 mM EDTA pH 7.4, 25 μL/min, 1:1 Langmuir global fit; no nucleotide
[6] = target: PfHsp70-xT, truncated PfHsp70-x lacking the C-terminal EEVN residues (P. falciparum); test: as above
human granzyme B = target: T1, human granzyme B (human, UniProt P10144 19-247); test: SPR; GrB immobilised on the chip, TKD peptides injected as analytes at 0, 125, 500, 750 and 1000 nM, 25 °C, 1:1 Langmuir global fit; no nucleotide; conditions: both partners purified
T1 construct: granzyme B, human, serine protease; Bought protein; also called GrB; human GrB; source: bought: Hölzel Diagnostics, Cologne, Germany

## human granzyme B (from UniProt P10144 19-247) (enzyme)
[1]
  Kd: 1 nM
  koff: 2.05e-05 s⁻¹
  kon: 6990 M⁻¹ s⁻¹
[2]
  Kd: 4200 nM
  koff: 0.000123 s⁻¹
  kon: 5870 M⁻¹ s⁻¹
[3]
  Kd: 1 nM
  koff: 7.06e-06 s⁻¹
  kon: 3850 M⁻¹ s⁻¹
[4]
  Kd: 2820 nM
  koff: 2.24e-05 s⁻¹
  kon: 2560 M⁻¹ s⁻¹
[5]
  Kd: 4 nM
  koff: 1.64e-05 s⁻¹
  kon: 4350 M⁻¹ s⁻¹
[6]
  Kd: 2370 nM
  koff: 0.000732 s⁻¹
  kon: 2140 M⁻¹ s⁻¹

B1: synthetic TKD peptide representing the 14-mer TKD motif of PfHsp70-x (peptide)
peptide: TKDNNLLGKFQLEG
notes: 14-mer TKD motif of PfHsp70-x, Plasmodium falciparum; also called PfHsp70-x TKD; source: synthetic peptide (Genscript, Piscataway, NJ, USA)
Human granzyme B
  Kd: 20 nM
  koff: 3.62e-05 s⁻¹
  kon: 3130 M⁻¹ s⁻¹

B2: TKD motif of hHsp70 (14-mer peptide) (peptide)
peptide: TKDNNLLGRFELSG
notes: 14-mer TKD motif of human Hsp70, amino acids 450-463; also called hHsp70 TKD motif
Human granzyme B
  Kd: 4 nM
  koff: 2.17e-05 s⁻¹
  kon: 2930 M⁻¹ s⁻¹
